The record followed here is paper PMC11077084, “Biochemical characterization of the meiosis-essential yet evolutionarily divergent topoisomerase VIB-like protein MTOPVIB from Arabidopsis thaliana” (Nucleic Acids Research, 2024).

In data set [1] the target is T1, N. equitans Topo VI complex (Topo VIA•Topo VIB) (Nanoarchaeum equitans, UniProt Q74N98).
T1 construct: gene top6B; codon-optimized Topo VIA and VIB co-expressed from pETDuet in E. coli Rosetta (DE3) pLysS; heat step, Ni-NTA; A2B2 heterotetramer; with Type 2 DNA topoisomerase 6 subunit A
T1 sequence (Q74N98 1-567): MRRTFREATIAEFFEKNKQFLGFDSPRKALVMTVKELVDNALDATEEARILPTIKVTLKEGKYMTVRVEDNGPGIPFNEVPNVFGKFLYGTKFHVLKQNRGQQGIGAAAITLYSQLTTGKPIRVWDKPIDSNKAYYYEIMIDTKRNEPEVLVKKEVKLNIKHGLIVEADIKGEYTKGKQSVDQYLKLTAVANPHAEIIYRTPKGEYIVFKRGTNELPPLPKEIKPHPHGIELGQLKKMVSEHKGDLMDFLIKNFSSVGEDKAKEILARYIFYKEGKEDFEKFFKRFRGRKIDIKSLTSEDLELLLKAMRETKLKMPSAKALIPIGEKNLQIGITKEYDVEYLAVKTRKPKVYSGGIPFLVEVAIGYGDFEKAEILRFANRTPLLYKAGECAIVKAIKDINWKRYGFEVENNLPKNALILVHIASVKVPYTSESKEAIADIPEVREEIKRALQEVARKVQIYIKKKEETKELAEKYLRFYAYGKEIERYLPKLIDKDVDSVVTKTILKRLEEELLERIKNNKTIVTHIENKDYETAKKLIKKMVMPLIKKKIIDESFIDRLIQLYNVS
T1 sequence (Q74M54 1-359 partner): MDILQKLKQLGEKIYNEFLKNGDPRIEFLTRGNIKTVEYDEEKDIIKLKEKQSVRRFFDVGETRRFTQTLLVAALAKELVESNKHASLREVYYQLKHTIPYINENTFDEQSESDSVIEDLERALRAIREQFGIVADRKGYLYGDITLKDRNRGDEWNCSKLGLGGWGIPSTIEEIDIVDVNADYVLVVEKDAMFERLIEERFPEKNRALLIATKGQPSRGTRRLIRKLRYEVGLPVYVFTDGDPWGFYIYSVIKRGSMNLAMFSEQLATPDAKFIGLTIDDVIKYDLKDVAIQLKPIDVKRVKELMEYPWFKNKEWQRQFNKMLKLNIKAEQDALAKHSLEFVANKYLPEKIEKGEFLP
As to the kind of experiment: radioisotope-based ATPase assay; also ATP-agarose pulldown. The data set is classed as biochemical. As to conditions: labelled compound (gamma-32P) in the ATPase assay.

Data set [2] concerns the molecule itself. The data set is described as follows: SEC; Hi-Load Superdex 200 in D buffer without imidazole and glycerol, last step of the purification; monomer to dimer.
Data set [3] concerns the molecule itself. As to the kind of experiment: SEC; purified MBP-tagged MTOPVIB on a Superdex 200 Increase 10/300 GL column calibrated with size standards; without ATP; monomer to dimer.
Data set [4] deals with T2, MTOPVIB (Arabidopsis thaliana, UniProt Q5Q0E6 1-473).
T2 sequence: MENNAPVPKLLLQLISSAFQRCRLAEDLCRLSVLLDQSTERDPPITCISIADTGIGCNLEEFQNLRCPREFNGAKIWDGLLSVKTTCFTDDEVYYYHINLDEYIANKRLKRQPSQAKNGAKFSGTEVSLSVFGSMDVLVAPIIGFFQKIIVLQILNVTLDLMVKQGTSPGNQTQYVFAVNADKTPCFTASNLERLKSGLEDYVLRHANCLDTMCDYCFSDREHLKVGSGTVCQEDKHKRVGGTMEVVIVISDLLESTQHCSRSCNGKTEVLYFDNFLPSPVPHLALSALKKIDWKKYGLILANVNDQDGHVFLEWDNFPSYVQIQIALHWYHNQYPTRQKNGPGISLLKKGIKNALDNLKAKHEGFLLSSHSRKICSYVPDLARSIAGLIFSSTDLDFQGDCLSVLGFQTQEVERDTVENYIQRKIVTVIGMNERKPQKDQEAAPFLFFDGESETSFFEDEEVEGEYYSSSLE
As to the kind of experiment: SPR; reaction buffer F, 0.05% Tween 20, 23 C; 1:1 global fit; EMSA: reaction buffer F (composition not in material) + 0.1 mg/ml BSA, 23 C, 30 min, 0.8% agarose-TBE at 4 C (6% PAGE for the competition); SPR: buffer F + 0.05% Tween 20, 23 C. As to conditions: protein: recombinant; tags: none (His6-MBP removed by PreScission); chain copies: 2; label: 5' biotin on Oligo 1; blunt.

Turning to `Nc1ncnc2c1ncn2[C@@H]1O[C@H](COP(=O)(O)OP(=O)(O)OP(=O)(O)O)[C@@H](O)[C@H]1O` [ATP], in data set [1], the “radioisotope-based ATPase assay; also ATP-agarose pulldown” value is reported as “unlike the Topo VI complex that hydrolyzed ATP to release”.

B1: Nanoarchaeum equitans Topo VIB (expressed alone from pET21b) (natural protein, UniProt Q74N98 1-567, looked up)
chain: T1 sequence (Q74N98 1-567)
notes: Topoisomerase VI subunit B, Nanoarchaeum equitans, codon-optimized cDNA in the Nde1 and Xho1 sites of pET21b; The tag is inferred from the vector and the Ni-NTA step; also called N. equitans Topo VIB; source: E. coli Rosetta (DE3) pLysS, purified (Ni-NTA, HiPrep SP XL, Hi-Load Superdex 200)
For the molecule B1, the “stoichiometry N” value in data set [2] is 2.

B2: A. thaliana His6-MBP-MTOPVIB (natural protein, UniProt Q5Q0E6 1-473, looked up)
chain: T2 sequence
notes: a PreScission protease site lies between the tag and the protein; Tag not cleaved in the size-exclusion analysis (MBP-tagged MTOPVIB) nor during the amylose step of the complex purification; also called MBP-tagged MTOPVIB; meiotic Topo VIB-like protein; source: High Five insect cells (baculovirus); purified alone (amylose, heparin, Mono Q, Superdex 200), and co-expressed with His6-SPO11-1 and …
As for B2, the “stoichiometry N” value in data set [3] was determined as 2.

B3: 80 bp dsDNA, biotinylated (dsDNA)
DNA 1: TTATGTTCATTTTTTATATCCTTTACTTTATTTTCTCTGTTTATTCATTTACTTATTTTGTATTATCCTTATCTTATTTA
DNA 2: TAAATAAGATAAGGATAATACAAAATAAGTAAATGAATAAACAGAGAAAATAAAGTAAAGGATATAAAAAATGAACATAA
B3: in data set [4], the Kd is around 150 nM.
